Patent US20030171537, “Peptides and peptidomimetics with structural similarity to human p53 that activate p53 function” (published 2003)

Molecular target: p53 wild-type (Homo sapiens, UniProt P04637 SEQ:1-393)
Assay: EMSA; binds quite efficiently; PAb421 stimulation +
Conditions: chain copies: 4 inferred; label: 32P
Procedure: Briefly the in vitro translated protein is incubated with a radioactively labeled oligonucleotide containing a p53 binding site in the presence of non-specific competitor DNA. The reaction mixture is incubated 20 min. at room temperature and directly loaded on a native 5% polyacrylamide electrophoresis gel. In this type of DNA binding assay free DNA migrates to the bottom of the gel, whereas p53/DNA complexes migrate more slowly.

p53 wild-type, sequence (P04637 whole entry): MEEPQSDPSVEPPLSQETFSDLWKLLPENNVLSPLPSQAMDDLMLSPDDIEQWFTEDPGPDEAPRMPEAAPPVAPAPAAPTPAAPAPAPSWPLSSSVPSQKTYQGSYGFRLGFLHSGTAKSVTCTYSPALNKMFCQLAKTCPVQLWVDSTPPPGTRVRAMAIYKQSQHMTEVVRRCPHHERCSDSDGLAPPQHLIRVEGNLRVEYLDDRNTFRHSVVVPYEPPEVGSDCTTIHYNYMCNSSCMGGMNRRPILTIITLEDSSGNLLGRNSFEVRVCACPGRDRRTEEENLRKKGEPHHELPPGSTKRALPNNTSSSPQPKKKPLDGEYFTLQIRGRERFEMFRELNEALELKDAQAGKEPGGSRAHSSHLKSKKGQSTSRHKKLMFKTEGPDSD

B1: BC (dsDNA)
DNA 1: CCGGGCATGTCCGGGCATGTCCGGGCATGT
DNA 2: ACATGCCCGGACATGCCCGGACATGCCCGG
  binding result: binds
